Reference: patent US20140057323A1, “ENHANCED CELLODEXTRIN METABOLISM” (The Board of Trustees of the University of Illinois, priority 2011, published 2014)

Columns and labels:
[1] = substrate: OC[C@H]1O[C@@H](O[C@H]2[C@H](O)[C@@H](O)C(O)O[C@@H]2CO)[C@H](O)[C@@H](O)[C@@H]1O; experiment: cells, lysate or membranes; conditions: other: CDT-1 WT, [3H]-cellobiose uptake, pH 5.6
[2] = substrate: OC[C@H]1O[C@@H](O[C@H]2[C@H](O)[C@@H](O)C(O)O[C@@H]2CO)[C@H](O)[C@@H](O)[C@@H]1O; experiment: Transporter kinetics, [3H]-cellobiose uptake into yeast; assay type: cell-based, Neurospora crassa; conditions: pH 5.6
Protocol: Briefly, the yeast strain D452-2 transformed with mutant transporters was set-up at an OD (600 nm) of −0.2 in 50 mL of DOB-uracil and grown to an OD (600 nm) of ˜1. Cells were then harvested by centrifugation, washed 3× with 10 mLs of transport buffer (30 mM MES-NaOH [pH 5.6], 50 mM EtOH), and resuspended to a final OD (600 nm) of ˜40 in transport buffer. The GFP fluorescence of 100 μL of these cells was determined with excitation/emission wavelengths of 485/535 nm Beckman Coulter Paradigm™ plate reader. […] Reactions were stopped by spinning cells through the oil for 1 minute at 17,000 g, tubes were frozen in ethanol/dry ice, and tube-bottoms containing the cell-pellets were clipped off into 1 mL of 0.5 M NaOH. The pellets were solubilized overnight, 5 mL of Ultima Gold scintillation fluid added, and CPM determined in a Tri-Carb 2900TR scintillation counter.

[3] = substrate: OC[C@H]1O[C@@H](O[C@H]2[C@H](O)[C@@H](O)C(O)O[C@@H]2CO)[C@H](O)[C@@H](O)[C@@H]1O; experiment: Kinetic parameters of purified SdCBP (glucose oxidase/peroxidase assay); assay type: biochemical, Saccharophagus degradans; conditions: other: SdCBP, glucose production from cellobiose, 50 mM phosphate pH 6.0
Protocol: (§1) The amount of cellobiase activity in cell extracts was determined by the Glucose oxidase/Peroxidase assay. […] The number of pmol of glucose produced per second was calculated by multiplying the rate of increase at 436 nm by 1.17×10^3, a conversion that was established from a glucose standard curve.
(§2) GH1-1 and SdCBP were purified directly from the D452-2 yeast strains described above. 200 mL cultures in DOB-uracil-leucine were grown to an OD (600 nm) of ˜7. Cells were pelleted and washed 1× with 40 mL ddH2O. Cell pellets were resuspended in 25 mL of 50 mM NaH2PO4 [pH 8.0], 300 mM NaCl, 10 mM imidazole, 2 mM DTT, and Roche Complete EDTA-free Protease Inhibitor Cocktail, and lysed by passage through an Avestin EmulsiFlex C-3 homogenizer at 20,000 P.S.I. Cell debris was then pelleted, and proteins purified using Nickel-NTA agarose beads from Qiagen following the protocol for native batch purification provided by Qiagen. Protein eluted from the beads was buffer exchanged into a buffer consisting of phosphate buffered saline (PBS), 10% glycerol, and 2 mM DTT, snap-frozen in (1)N2 and stored at −80° C. Protein concentrations were determined by the absorbance at 280 nm using extinction coefficients of 108750 M^−1 cm^−1 and 178540 M^−1 cm^−1, for GH1-1 and SdCBP, respectively.
(§3) A 1 mL assay included either […] of GH1-1 or […] SdCBP.
(§4) To assay the transglycosylation activity of GH1-1 and SdCBP, both enzymes were enriched from cell extracts by IMAC. […] The kinetic parameters of the enriched proteins were also measured, and the results are depicted in FIG. 12 and quantified in Table 12.

[4] = substrate: OC[C@H]1O[C@@H](O[C@H]2[C@H](O)[C@@H](O)C(O)O[C@@H]2CO)[C@H](O)[C@@H](O)[C@@H]1O; experiment: Kinetic parameters of purified GH1-1 (glucose oxidase/peroxidase assay); assay type: biochemical, Neurospora crassa; conditions: other: GH1-1, glucose production from cellobiose, 50 mM phosphate pH 6.0
Protocol: as §1, §2, §3, §4

B1: Neurospora crassa cellodextrin transporter CDT-1 (NCU00801), wild type, SEQ ID NO: 9, GFP-tagged, in S. cerevisiae D452-2 (Neurospora crassa OR74A) (protein)
chain: MSSHGSHDGASTEKHLATHDIAPTHDAIKIVPKGHGQTATKPGAQEKEVRNAALFAAIKESNIKPWSKESIHLYFAIFVAFCCACANGYDGSLMTGIIAMDKFQNQFHTGDTGPKVSVIFSLYTVGAMVGAPFAAILSDRFGRKKGMFIGGIFIIVGSIIVASSSKLAQFVVGRFVLGLGIAIMTVAAPAYSIEIAPPHWRGRCTGFYNCGWFGGSIPAACITYGCYFIKSNWSWRIPLILQAFTCLIVMSSVFFLPESPRFLFANGRDAEAVAFLVKYHGNGDPNSKLVLLETEEMRDGIRTDGVDKVWWDYRPLFMTHSGRWRMAQVLMISIFGQFSGNGLGYFNTVIFKNIGVTSTSQQLAYNILNSVISAIGALTAVSMTDRMPRRAVLIIGTFMCAAALATNSGLSATLDKQTQRGTQINLNQGMNEQDAKDNAYLHVDSNYAKGALAAYFLFNVIFSFTYTPLQGVIPTEALETTIRGKGLALSGFIVNAMGFINQFAGPIALHNIGYKYIFVFVGWDLIETVAWYFFGVESQGRTLEQLEWVYDQPNPVKASLKVEKVVVQADGHVSEAIVA
Km [1]: 7.6 ± 1.5 µM

B2: Neurospora crassa cellodextrin transporter CDT-1 (SEQ ID NO: 9) variant F213L, GFP-tagged, in S. cerevisiae D452-2 (Neurospora crassa OR74A; F213L) (protein)
chain: MSSHGSHDGASTEKHLATHDIAPTHDAIKIVPKGHGQTATKPGAQEKEVRNAALFAAIKESNIKPWSKESIHLYFAIFVAFCCACANGYDGSLMTGIIAMDKFQNQFHTGDTGPKVSVIFSLYTVGAMVGAPFAAILSDRFGRKKGMFIGGIFIIVGSIIVASSSKLAQFVVGRFVLGLGIAIMTVAAPAYSIEIAPPHWRGRCTGFYNCGWLGGSIPAACITYGCYFIKSNWSWRIPLILQAFTCLIVMSSVFFLPESPRFLFANGRDAEAVAFLVKYHGNGDPNSKLVLLETEEMRDGIRTDGVDKVWWDYRPLFMTHSGRWRMAQVLMISIFGQFSGNGLGYFNTVIFKNIGVTSTSQQLAYNILNSVISAIGALTAVSMTDRMPRRAVLIIGTFMCAAALATNSGLSATLDKQTQRGTQINLNQGMNEQDAKDNAYLHVDSNYAKGALAAYFLFNVIFSFTYTPLQGVIPTEALETTIRGKGLALSGFIVNAMGFINQFAGPIALHNIGYKYIFVFVGWDLIETVAWYFFGVESQGRTLEQLEWVYDQPNPVKASLKVEKVVVQADGHVSEAIVA
notes: [3H]-cellobiose uptake
Km ([2]; other: CDT-1 F213L): 188.8 ± 55.3 µM

B3: Neurospora crassa cellodextrin transporter CDT-1 (SEQ ID NO: 9) variant G91A, GFP-tagged, in S. cerevisiae D452-2 (Neurospora crassa OR74A; G91A) (protein)
chain: MSSHGSHDGASTEKHLATHDIAPTHDAIKIVPKGHGQTATKPGAQEKEVRNAALFAAIKESNIKPWSKESIHLYFAIFVAFCCACANGYDASLMTGIIAMDKFQNQFHTGDTGPKVSVIFSLYTVGAMVGAPFAAILSDRFGRKKGMFIGGIFIIVGSIIVASSSKLAQFVVGRFVLGLGIAIMTVAAPAYSIEIAPPHWRGRCTGFYNCGWFGGSIPAACITYGCYFIKSNWSWRIPLILQAFTCLIVMSSVFFLPESPRFLFANGRDAEAVAFLVKYHGNGDPNSKLVLLETEEMRDGIRTDGVDKVWWDYRPLFMTHSGRWRMAQVLMISIFGQFSGNGLGYFNTVIFKNIGVTSTSQQLAYNILNSVISAIGALTAVSMTDRMPRRAVLIIGTFMCAAALATNSGLSATLDKQTQRGTQINLNQGMNEQDAKDNAYLHVDSNYAKGALAAYFLFNVIFSFTYTPLQGVIPTEALETTIRGKGLALSGFIVNAMGFINQFAGPIALHNIGYKYIFVFVGWDLIETVAWYFFGVESQGRTLEQLEWVYDQPNPVKASLKVEKVVVQADGHVSEAIVA
notes: [3H]-cellobiose uptake
Km ([2]; other: CDT-1 G91A): 43.5 ± 10.1 µM

B4: Neurospora crassa cellodextrin transporter CDT-1 (SEQ ID NO: 9) variant F335A, GFP-tagged, in S. cerevisiae D452-2 (Neurospora crassa OR74A; F335A) (protein)
chain: MSSHGSHDGASTEKHLATHDIAPTHDAIKIVPKGHGQTATKPGAQEKEVRNAALFAAIKESNIKPWSKESIHLYFAIFVAFCCACANGYDGSLMTGIIAMDKFQNQFHTGDTGPKVSVIFSLYTVGAMVGAPFAAILSDRFGRKKGMFIGGIFIIVGSIIVASSSKLAQFVVGRFVLGLGIAIMTVAAPAYSIEIAPPHWRGRCTGFYNCGWFGGSIPAACITYGCYFIKSNWSWRIPLILQAFTCLIVMSSVFFLPESPRFLFANGRDAEAVAFLVKYHGNGDPNSKLVLLETEEMRDGIRTDGVDKVWWDYRPLFMTHSGRWRMAQVLMISIAGQFSGNGLGYFNTVIFKNIGVTSTSQQLAYNILNSVISAIGALTAVSMTDRMPRRAVLIIGTFMCAAALATNSGLSATLDKQTQRGTQINLNQGMNEQDAKDNAYLHVDSNYAKGALAAYFLFNVIFSFTYTPLQGVIPTEALETTIRGKGLALSGFIVNAMGFINQFAGPIALHNIGYKYIFVFVGWDLIETVAWYFFGVESQGRTLEQLEWVYDQPNPVKASLKVEKVVVQADGHVSEAIVA
notes: [3H]-cellobiose uptake
Km ([2]; other: CDT-1 F335A): 114.8 ± 46.4 µM

B5: Saccharophagus degradans cellobiose phosphorylase SdCBP, wild type, SEQ ID NO: 12 (Saccharophagus degradans 2-40) (protein)
chain: MKFGHFDDKAREYVITDPKTPYPWINYLGNEDFFSLVSNTGGGYSFYKDAKFRRLTRYRYNNVPVDNGGKYFYINDSGDVWSPGWKPVKAELDAYSCAHGLSYTRITGERNGIQAEVLSFIPLGTWAEIQKVSLKNTSGATKKFKLFSFAEWCLWNAEDDMTNFQRNFSTGEVEVEDSVIYHKTEFKERRNHYAFYSVNAPIQGFDTDRDKWKGLYNDFDKPDAVFEGEPRNSEAHGWSPIASHYLEVELAPGESKDLIFVLGYIEVAPENKWESKGVINKSPAKELIARFDSVEKVDAELTKLADYWANLLSTYSVESGDEKLDRMVNIWNQYQCMVTFNMSRSASFFESGIGRGMGFRDSNQDLIGFVHQVPERARERIIDIASTQFEDGSAYHQYQPLTKRGNNAIGGNFNDDPLWLILSTTDYIKETGDFSILEEQVPYDNDASKATSHFEHLKRSFYHTVNNLGPHGLPLIGRADWNDCLNLNCFSEDPNESFQTTGNKTGRTAESLMIAGLFVLYGNEFVKLCREIGQDGEAAEAQAHIDQMVEAVKKHGWDGEWFLRAYDYYGKKVGSKENEEGKIFIESQGFCGMAGIGLEDGLVEKSMDSVKEWLDCDYGIVLQQPAFTKYYIEYGEISTYPAGYKENAGIFCHNNPWIMITETLLGRGDKAFEYYRKIAPAYLEEISDLHKVEPYAYCQMIAGKDAYLPGEGKNSWLTGTASWNFAAITQYILGVKPDYSGLAINPCIPSSWDGFKVTRKYRGATYNIIVTNPTHVSKGVKSLTLNGNAIDGYIVPPQQAGTVCNVEVTLG
Km [3]: 650 µM
kcat [3]: 7 s⁻¹
kcat/Km [3]: 11500 M⁻¹ s⁻¹

B6: Neurospora crassa β-glucosidase GH1-1 (NCU00130) (Neurospora crassa OR74A) (protein)
chain: MSLPKDFLWGFATAAYQIEGAIHADGRGPSIWDTFCNIPGKIADGSSGAVACDSYNRTKEDIDLLKSLGATAYRFSISWSRIIPVGGRNDPINQKGIDHYVKFVDDLLEAGITPFITLFHWDLPDGLDKRYGGLLNREEFPLDFEHYARTMFKAIPKCKHWITFNEPWCSSILGYNSGYFAPGHTSDRTKSPVGDSAREPWIVGHNLLIAHGRAVKVYREDFKPTQGGEIGITLNGDATLPWDPEDPLDVEACDRKIEFAISWFADPIYFGKYPDSMRKQLGDRLPEFTPEEVALVKGSNDFYGMNHYTANYIKHKKGVPPEDDFLGNLETLFYNKKGNCIGPETQSFWLRPHAQGFRDLLNWLSKRYGYPKIYVTENGTSLKGENAMPLKQIVEDDFRVKYFNDYVNAMAKAHSEDGVNVKGYLAWSLMDNFEWAEGYETRFGVTYVDYENDQKRYPKKSAKSLKPLFDSLIKKD
Km [4]: 320 µM
kcat [4]: 7 s⁻¹
kcat/Km [4]: 21900 M⁻¹ s⁻¹
